The results in this text go back to US20170336415A1.

Assay [1] concerns the target fucosylated haptoglobin (UniProt P00738). Nature of the assay: sandwich ELISA, 5 M urea against no urea. Background: In an ELISA, binding on a coated surface is turned into a signal by an enzyme label.
The target is the same in assay [2]. Description: sandwich ELISA as in Example 4, captured fHP, biotin-labeled AML, 5 M urea.
The target is the same in assay [3]. Description: sandwich ELISA, 5 M urea minus no urea.
For assay [4] the target is unchanged. Description: sandwich ELISA as in Example 4, captured fHP, biotin-labeled AML, no urea.
Assay [5] has the same target. Description: sandwich ELISA, fHP 200 ng/mL captured by anti-haptoglobin antibody, biotin-labeled lectin 1 µg/mL, no urea.
For assay [6] the target is unchanged. Nature of the assay: sandwich ELISA, fHP 200 ng/mL captured by anti-haptoglobin antibody, biotin-labeled lectin 1 µg/mL, 5 M urea.
Assay [7] shares this target. Description: sandwich ELISA as in Example 4, captured fHP, biotin-labeled NSL, no urea.
For assay [8] the target is unchanged. Description: sandwich ELISA as in Example 4, captured fHP, biotin-labeled NSL, 5 M urea.
For assay [9] the target is unchanged. Nature of the assay: magnetic bead assay, signal with fHP divided by signal without fHP, 5 M urea.
Assay [10] shares this target. Description: magnetic bead assay, 5 M urea minus no urea.
The target is the same in assay [11]. Description: magnetic bead assay: fHP 0.45 µg/mL mixed with recombinant lectin 5 µg/mL, captured on anti-haptoglobin antibody beads, HRP anti-FLAG detection, 5 M urea.
Assay [12] shares this target. Description: magnetic bead assay: fHP 0.45 µg/mL mixed with recombinant lectin 5 µg/mL, captured on anti-haptoglobin antibody beads, HRP anti-FLAG detection, no urea.
The target is the same in assay [13]. Nature of the assay: magnetic bead assay, 5 M urea against no urea.
Assay [14] shares this target. Description: magnetic bead assay, signal with fHP divided by signal without fHP, no urea.
For assay [15] the target is unchanged. Nature of the assay: direct adsorption ELISA, fHP immobilized, biotin-labeled PhoSL, no thiourea.
For assay [16] the target is unchanged. Description: sandwich ELISA, wash with 5 M urea against wash without.
Assay [17] has the same target. Nature of the assay: sandwich ELISA as in Example 4 (biotin-labeled PhoSL), captured fHP washed with detergent liquid with 1.2 M thiourea, none in lectin solution.
The target is the same in assay [18]. Description: sandwich ELISA as in Example 4, fHP 50 ng/mL, urea 0 to 9 M.
For assay [19] the target is unchanged. Nature of the assay: direct adsorption ELISA, fHP immobilized, biotin-labeled PhoSL 1 µg/mL, no urea.
Assay [20] shares this target. Nature of the assay: direct adsorption ELISA, 1.2 M thiourea against no thiourea.
In assay [21] the target is α-fetoprotein L3 (UniProt P02771). The assay is described as above.
Sequence of α-fetoprotein L3 (P02771 19-609 limits assumed): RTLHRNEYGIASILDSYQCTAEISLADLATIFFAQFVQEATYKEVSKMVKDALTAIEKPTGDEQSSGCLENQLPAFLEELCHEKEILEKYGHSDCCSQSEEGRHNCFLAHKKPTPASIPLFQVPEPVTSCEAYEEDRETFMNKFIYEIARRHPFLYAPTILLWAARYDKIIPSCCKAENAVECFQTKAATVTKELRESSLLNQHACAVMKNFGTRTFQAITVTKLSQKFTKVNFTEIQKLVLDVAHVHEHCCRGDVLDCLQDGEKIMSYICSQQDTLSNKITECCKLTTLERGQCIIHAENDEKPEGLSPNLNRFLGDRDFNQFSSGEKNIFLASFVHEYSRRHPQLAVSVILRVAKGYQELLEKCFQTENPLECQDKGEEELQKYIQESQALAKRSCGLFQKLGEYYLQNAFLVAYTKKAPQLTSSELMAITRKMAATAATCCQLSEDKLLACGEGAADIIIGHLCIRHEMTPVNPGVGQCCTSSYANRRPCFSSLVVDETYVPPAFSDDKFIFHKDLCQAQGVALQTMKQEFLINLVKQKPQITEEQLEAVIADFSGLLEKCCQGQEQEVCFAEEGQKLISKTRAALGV
Assay [22] shares this target. Description: direct adsorption ELISA, AFP-L3 immobilized, biotin-labeled PhoSL 1 µg/mL, 5 M urea.
Assay [23] addresses fucosylated haptoglobin (UniProt P00738). Nature of the assay: direct adsorption ELISA, 5 M urea minus no urea.
Assay [24] deals with α-fetoprotein L3 (UniProt P02771). Nature of the assay: direct adsorption ELISA, 5 M urea minus no urea.
Assay [25] deals with fucosylated haptoglobin (UniProt P00738). Nature of the assay: direct adsorption ELISA, fHP immobilized, biotin-labeled PhoSL, 1.2 M thiourea.
Sequence of fucosylated haptoglobin (P00738 19-406 limits assumed): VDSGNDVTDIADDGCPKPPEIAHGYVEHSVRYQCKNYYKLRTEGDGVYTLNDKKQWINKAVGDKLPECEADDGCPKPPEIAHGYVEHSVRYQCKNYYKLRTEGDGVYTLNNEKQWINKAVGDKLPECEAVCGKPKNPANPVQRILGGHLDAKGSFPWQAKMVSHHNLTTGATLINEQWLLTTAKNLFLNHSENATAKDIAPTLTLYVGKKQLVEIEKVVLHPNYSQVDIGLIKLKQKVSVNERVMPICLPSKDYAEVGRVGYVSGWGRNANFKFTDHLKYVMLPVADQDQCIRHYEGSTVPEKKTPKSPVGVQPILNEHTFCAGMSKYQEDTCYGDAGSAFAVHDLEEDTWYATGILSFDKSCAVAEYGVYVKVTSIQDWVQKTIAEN
Assay [26] addresses α-fetoprotein L3 (UniProt P02771). Nature of the assay: direct adsorption ELISA, AFP-L3 immobilized, biotin-labeled PhoSL, no thiourea.
Assay [27] addresses fucosylated haptoglobin (UniProt P00738). Description: sandwich ELISA as in Example 4, thiourea 0 to 1.5 M.
For assay [28] the target is unchanged. Description: direct adsorption ELISA, 5 M urea against no urea.
For assay [29], the target named is α-fetoprotein L3 (UniProt P02771). Nature of the assay: direct adsorption ELISA, 5 M urea against no urea.
For assay [30], the target named is fucosylated haptoglobin (UniProt P00738). Description: sandwich ELISA, wash with 1.2 M thiourea against wash without.
Assay [31] has the same target. Nature of the assay: direct adsorption ELISA, 1.2 M thiourea minus no thiourea.
For assay [32], the target named is α-fetoprotein L3 (UniProt P02771). The assay is described as above.
The target in assay [33] is fucosylated haptoglobin (UniProt P00738). Nature of the assay: sandwich ELISA as in Example 4 (biotin-labeled PhoSL), captured fHP washed with detergent liquid with 5 M urea, no urea in lectin solution.
Assay [34] has the same target. Description: sandwich ELISA, wash with 1.2 M thiourea minus wash without.
For assay [35] the target is unchanged. Nature of the assay: sandwich ELISA as in Example 4 (biotin-labeled PhoSL), captured fHP washed with detergent liquid without urea or thiourea.
Assay [36] deals with α-fetoprotein L3 (UniProt P02771). Description: direct adsorption ELISA, AFP-L3 immobilized, biotin-labeled PhoSL, 1.2 M thiourea.
The target is the same in assay [37]. Nature of the assay: direct adsorption ELISA, AFP-L3 immobilized, biotin-labeled PhoSL 1 µg/mL, no urea.
Assay [38] has as its target fucosylated haptoglobin (UniProt P00738). Description: sandwich ELISA, wash with 5 M urea minus wash without.
Assay [39] shares this target. Description: direct adsorption ELISA, fHP immobilized, biotin-labeled PhoSL 1 µg/mL, 5 M urea.
Assay [40] shares this target. Nature of the assay: sandwich ELISA as in Example 4, captured fHP, biotin-labeled PTL, 5 M urea.
Assay [41] shares this target. Nature of the assay: sandwich ELISA as in Example 4, captured fHP, biotin-labeled PTL, no urea.

On to “Amanita muscaria lectin (AML), biotin-labeled”, for which the Increased rate of signal with fucosylated haptoglobin [1] worked out at 20.3 fold. In addition, the Reaction value (S - N)urea 5M (absorbance (450 nm - 630 nm)) with fucosylated haptoglobin [2] worked out at 0.548. The substance further came in with an Increased amount of signal (absorbance (450 nm - 630 nm)) with fucosylated haptoglobin [3] of 0.521. This substance had a Reaction value (S - N)urea 0M (absorbance (450 nm - 630 nm)) in the assay with fucosylated haptoglobin [4] of 0.027.
On to “Biotin-labeled Aleuria aurantia lectin (from UniProt P18891 2-313)”, for which, in the assay with fucosylated haptoglobin [5], the Reaction value (S - N)urea 0M (absorbance (450 nm - 630 nm)) turned out to be 0.877. In addition, in the assay with fucosylated haptoglobin [1], the Increased rate of signal worked out at 0.88 fold. The substance also had an Increased amount of signal (absorbance (450 nm - 630 nm)) with fucosylated haptoglobin [3] of -0.103. This substance also gave a Reaction value (S - N)urea 5M (absorbance (450 nm - 630 nm)) with fucosylated haptoglobin [6] of 0.774.
Consider “Naematoloma sublateritium lectin (NSL), biotin-labeled”, for which the Reaction value (S - N)urea 0M (absorbance (450 nm - 630 nm)) in the assay with fucosylated haptoglobin [7] was determined as 0.423. The substance further returned an Increased rate of signal with fucosylated haptoglobin [1] of 3.18 fold. This substance returned an Increased amount of signal (absorbance (450 nm - 630 nm)) in the assay with fucosylated haptoglobin [3] of 0.922. For the same substance, in the assay with fucosylated haptoglobin [8], the Reaction value (S - N)urea 5M (absorbance (450 nm - 630 nm)) came out at 1.34.
For PhoSL peptide, biotin-labeled, the Reaction value (S - N)urea 0M (absorbance (450 nm - 630 nm)) with fucosylated haptoglobin [5] was 0.162. The substance further showed an Increased rate of signal with fucosylated haptoglobin [1] of 1.32 fold. The Increased amount of signal (absorbance (450 nm - 630 nm)) in the assay with fucosylated haptoglobin [3] amounted to 0.052. For the same substance, the Reaction value (S - N)urea 5M (absorbance (450 nm - 630 nm)) with fucosylated haptoglobin [6] came to 0.214.
Substance PhoSL recombinant lectin had a Reaction value (S/N)urea 5M in the assay with fucosylated haptoglobin [9] of 26.3. The Increased amount of signal (absorbance (450 nm - 630 nm)) with fucosylated haptoglobin [10] is 0.253. Also, the Reaction value (S - N)urea 5M (absorbance (450 nm - 630 nm)) in the assay with fucosylated haptoglobin [11] was determined as 0.708. The Reaction value (S - N)urea 0M (absorbance (450 nm - 630 nm)) with fucosylated haptoglobin [12] came to 0.455. In addition, the Increased rate of signal with fucosylated haptoglobin [13] was 1.56 fold. The substance further yielded a Reaction value (S/N)urea 0M in the assay with fucosylated haptoglobin [14] of 6.83.
As to “Pholiota squarrosa lectin (PhoSL), biotin-labeled”, the results for the Reaction value (S - N)thiourea 0M (absorbance (450 nm - 630 nm)) with fucosylated haptoglobin [15] and with α-fetoprotein L3 [26] were 0.36 and 0.003, respectively. Further, the results for the Reaction value (S - N)urea 0M (absorbance (450 nm - 630 nm)) with fucosylated haptoglobin [5], in the assay with fucosylated haptoglobin [19] and with α-fetoprotein L3 [37] were 0.265, 0.253 and 0.008, respectively. In addition, the Increased rate of signal with fucosylated haptoglobin [16] came out at 1.84 fold; with fucosylated haptoglobin [20], 2.89 fold; with α-fetoprotein L3 [21] it was 39 fold; with fucosylated haptoglobin [1], 3 fold; in the assay with fucosylated haptoglobin [28] it was 2.86 fold; with α-fetoprotein L3 [29] it was 16.5 fold. In the assay with fucosylated haptoglobin [30], the Increased rate of signal was 1.67 fold. The Reaction value (S - N)thiourea 1.2M (absorbance (450 nm - 630 nm)) with fucosylated haptoglobin [17] was 0.909; in the assay with fucosylated haptoglobin [25], 1.04; with α-fetoprotein L3 [36], 0.117. The increased rate of the signals against no urea with fucosylated haptoglobin [18] was 1.2 to 2.8 times. Moreover, the Reaction value (S - N)urea 5M (absorbance (450 nm - 630 nm)) was found to be 0.132 with α-fetoprotein L3 [22], 1 with fucosylated haptoglobin [33], 0.796 with fucosylated haptoglobin [6] and 0.724 in the assay with fucosylated haptoglobin [39]. For the same substance, the Increased amount of signal (absorbance (450 nm - 630 nm)) in the assay with fucosylated haptoglobin [23] turned out to be 0.471; with α-fetoprotein L3 [24], 0.124; with fucosylated haptoglobin [3] it was 0.531; with fucosylated haptoglobin [31] it was 0.681; with α-fetoprotein L3 [32], 0.114; with fucosylated haptoglobin [34], 0.364. The substance also returned an Increased amount of signal (absorbance (450 nm - 630 nm)) with fucosylated haptoglobin [38] of 0.457. The increased rate of the signals against no thiourea in the assay with fucosylated haptoglobin [27] was 1.2 to 4.1 times. The Reaction value (S - N)0M (absorbance (450 nm - 630 nm)) in the assay with fucosylated haptoglobin [35] is 0.545.
Turning to “Pholiota terrestris lectin (PTL), biotin-labeled”, the Increased rate of signal with fucosylated haptoglobin [1] worked out at 2.37 fold. The same substance gave an Increased amount of signal (absorbance (450 nm - 630 nm)) with fucosylated haptoglobin [3] of 0.743. In the assay with fucosylated haptoglobin [40], this substance had a Reaction value (S - N)urea 5M (absorbance (450 nm - 630 nm)) of 1.28. Besides, in the assay with fucosylated haptoglobin [41], the Reaction value (S - N)urea 0M (absorbance (450 nm - 630 nm)) stood at 0.542.
In the case of “Stropharia rugosoannulata lectin (SRL), biotin-labeled”, the Reaction value (S - N)urea 0M (absorbance (450 nm - 630 nm)) with fucosylated haptoglobin [5] turned out to be 0.43. This substance also yielded an Increased rate of signal with fucosylated haptoglobin [1] of 2.01 fold. This substance also gave an Increased amount of signal (absorbance (450 nm - 630 nm)) in the assay with fucosylated haptoglobin [3] of 0.433. Moreover, in the assay with fucosylated haptoglobin [6], the Reaction value (S - N)urea 5M (absorbance (450 nm - 630 nm)) came to 0.863.
